In the supplement of paper PMC11316812:
± gives the standard deviation of the averaged measurements.

Key:
hTERT-HMEC = assay: percentage of EdU-negative (G0-arrested) nuclei per well, 72 h; higher = more G0 arrest; settings: reference: sequence is the full UniProt precursor, the tested protein was the secreted form or ectodomain
MCF7 = assay: as above; settings: reference: sequence is the full UniProt precursor, the tested protein was the secreted form or ectodomain
[1] = protein concentration 0.0076025 µM
[2] = protein concentration 0.076025 µM
[3] = protein concentration 0.01392 µM
[4] = protein concentration 0.1392 µM
[5] = protein concentration 0.03125 µM
[6] = protein concentration 0.3125 µM
[7] = protein concentration 0.0225 µM
[8] = protein concentration 0.023405 µM
[9] = protein concentration 0.23405 µM
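Further: secreted proteins added to cultured cells, EdU pulse at the end, nuclei found by Hoechst imaging, EdU status from nuclear versus surrounding ring intensity ratio, PBS as neutral control.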

Sequence: MALGQKLFITMSRGAGRLQGTLWALVFLGILVGMVVPSPAGTRANNTLLDSRGWGTLLSRSRAGLAGEIAGVNWESGYLVGIKRQRRLYCNVGIGFHLQVLPDGRISGTHEENPYSLLEISTVERGVVSLFGVRSALFVAMNSKGRLYATPSFQEECKFRETLLPNNYNAYESDLYQGTYIALSKYGRVKRGSKVSPIMTVTHFLPRI
- percentage of EdU-negative (hTERT-HMEC; [1]): 4.73 ± 0.69%
- percentage of EdU-negative (hTERT-HMEC; [2]): 5.27 ± 0.17%
- percentage of EdU-negative (MCF7; [1]): 25.3 ± 0.82%
- percentage of EdU-negative (MCF7; [2]): 25 ± 2.6%

Sequence: MRLKNLTFIIILIISGELYAEEKPCGFPHVENGRIAQYYYTFKSFYFPMSIDKKLSFFCLAGYTTESGRQEEQTTCTTEGWSPEPRCFKKCTKPDLSNGYISDVKLLYKIQENMRYGCASGYKTTGGKDEEVVQCLSDGWSSQPTCRKEHETCLAPELYNGNYSTTQKTFKVKDKVQYECATGYYTAGGKKTEEVECLTYGWSLTPKCTKLKCSSLRLIENGYFHPVKQTYEEGDVVQFFCHENYYLSGSDLIQCYNFGWYPESPVCEGRRNRCPPPPLPINSKIQTHSTTYRHGEIVHIECELNFEIHGSAEIRCEDGKWTEPPKCIEGQEKVACEEPPFIENGAANLHSKIYYNGDKVTYACKSGYLLHGSNEITCNRGKWTLPPECVENNENCKHPPVVMNGAVADGILASYATGSSVEYRCNEYYLLRGSKISRCEQGKWSSPPVCLEPCTVNVDYMNRNNIEMKWKYEGKVLHGDLIDFVCKQGYDLSPLTPLSELSVQCNRGEVKYPLCTRKESKGMCTSPPLIKHGVIISSTVDTYENGSSVEYRCFDHHFLEGSREAYCLDGMWTTPPLCLEPCTLSFTEMEKNNLLLKWDFDNRPHILHGEYIEFICRGDTYPAELYITGSILRMQCDRGQLKYPRCIPRQSTLSYQEPLRT
- percentage of EdU-negative (hTERT-HMEC; [3]): 5.59 ± 0.28%
- percentage of EdU-negative (hTERT-HMEC; [4]): 7.25 ± 1.1%
- percentage of EdU-negative (MCF7; [3]): 26.7 ± 0.98%
- percentage of EdU-negative (MCF7; [4]): 25.4 ± 0.69%

Sequence: MGSSSFLVLMVSLVLVTLVAVEGVKEGIEKAGVCPADNVRCFKSDPPQCHTDQDCLGERKCCYLHCGFKCVIPVKELEEGGNKDEDVSRPYPEPGWEAKCPGSSSTRCPQK [Q8WWY7]
- percentage of EdU-negative (hTERT-HMEC; [5]): 5.3 ± 0.5%
- percentage of EdU-negative (hTERT-HMEC; [6]): 5.28 ± 0.67%
- percentage of EdU-negative (MCF7; [5]): 26.5 ± 3.1%
- percentage of EdU-negative (MCF7; [6]): 24 ± 2.8%

Sequence: MAAWSPAAAAPLLRGIRGLPLHHRMFATQTEGELRVTQILKEKFPRATAIKVTDISGGCGAMYEIKIESEEFKEKRTVQQHQMVNQALKEEIKEMHGLRIFTSVPKR [Q53S33]
- percentage of EdU-negative (hTERT-HMEC; [7]): 4.56 ± 0.98%
- percentage of EdU-negative (hTERT-HMEC; protein concentration 0.225 µM): 5.94 ± 0.72%
- percentage of EdU-negative (MCF7; [7]): 26.66 ± 0.12%
- percentage of EdU-negative (MCF7; protein concentration 0.225 µM): 26.7 ± 1.7%

Sequence: MASHSGPSTSVLFLFCCLGGWLASHTLPVRLLRPSDDVQKIVEELQSLSKMLLKDVEEEKGVLVSQNYTLPCLSPDAQPPNNIHSPAIRAYLKTIRQLDNKSVIDEIIEHLDKLIFQDAPETNISVPTDTHECKRFILTISQQFSECMDLALKSLTSGAQQATT [Q6EBC2]
- percentage of EdU-negative (hTERT-HMEC; [7]): 4.96 ± 0.56%
- percentage of EdU-negative (hTERT-HMEC; protein concentration 0.225 µM): 5.69 ± 0.58%
- percentage of EdU-negative (MCF7; [7]): 26.6 ± 1.1%
- percentage of EdU-negative (MCF7; protein concentration 0.225 µM): 24.9 ± 1.8%

Sequence: MAVKLGTLLLALALGLAQPASARRKLLVFLLDGFRSDYISDEALESLPGFKEIVSRGVKVDYLTPDFPSLSYPNYYTLMTGRHCEVHQMIGNYMWDPTTNKSFDIGVNKDSLMPLWWNGSEPLWVTLTKAKRKVYMYYWPGCEVEILGVRPTYCLEYKNVPTDINFANAVSDALDSFKSGRADLAAIYHERIDVEGHHYGPASPQRKDALKAVDTVLKYMTKWIQERGLQDRLNVIIFSDHGMTDIFWMDKVIELNKYISLNDLQQVKDRGPVVSLWPAPGKHSEIYNKLSTVEHMTVYEKEAIPSRFYYKKGKFVSPLTLVADEGWFITENREMLPFWMNSTGRREGWQRGWHGYDNELMDMRGIFLAFGPDFKSNFRAAPIRSVDVYNVMCNVVGITPLPNNGSWSRVMCMLKGRASTAPPVWPSHCALALILLFLLA [Q6UWR7]
- percentage of EdU-negative (hTERT-HMEC; [7]): 4.73 ± 0.19%
- percentage of EdU-negative (hTERT-HMEC; protein concentration 0.225 µM): 5.87 ± 0.68%
- percentage of EdU-negative (MCF7; [7]): 25.6 ± 0.4%
- percentage of EdU-negative (MCF7; protein concentration 0.225 µM): 27.791 ± 0.0037%

Sequence: MKTPWKVLLGLLGAAALVTIITVPVVLLNKGTDDATADSRKTYTLTDYLKNTYRLKLYSLRWISDHEYLYKQENNILVFNAEYGNSSVFLENSTFDEFGHSINDYSISPDGQFILLEYNYVKQWRHSYTASYDIYDLNKRQLITEERIPNNTQWVTWSPVGHKLAYVWNNDIYVKIEPNLPSYRITWTGKEDIIYNGITDWVYEEEVFSAYSALWWSPNGTFLAYAQFNDTEVPLIEYSFYSDESLQYPKTVRVPYPKAGAVNPTVKFFVVNTDSLSSVTNATSIQITAPASMLIGDHYLCDVTWATQERISLQWLRRIQNYSVMDICDYDESSGRWNCLVARQHIEMSTTGWVGRFRPSEPHFTLDGNSFYKIISNEEGYRHICYFQIDKKDCTFITKGTWEVIGIEALTSDYLYYISNEYKGMPGGRNLYKIQLSDYTKVTCLSCELNPERCQYYSVSFSKEAKYYQLRCSGPGLPLYTLHSSVNDKGLRVLEDNSALDKMLQNVQMPSKKLDFIILNETKFWYQMILPPHFDKSKKYPLLLDVYAGPCSQKADTVFRLNWATYLASTENIIVASFDGRGSGYQGDKIMHAINRRLGTFEVEDQIEAARQFSKMGFVDNKRIAIWGWSYGGYVTSMVLGSGSGVFKCGIAVAPVSRWEYYDSVYTERYMGLPTPEDNLDHYRNSTVMSRAENFKQVEYLLIHGTADDNVHFQQSAQISKALVDVGVDFQAMWYTDEDHGIASSTAHQHIYTHMSHFIKQCFSLP
- percentage of EdU-negative (hTERT-HMEC; protein concentration 0.009 µM): 4.55 ± 0.2%
- percentage of EdU-negative (hTERT-HMEC; [8]): 5.17 ± 1.7%
- percentage of EdU-negative (hTERT-HMEC; protein concentration 0.09 µM): 6.07 ± 0.24%
- percentage of EdU-negative (hTERT-HMEC; [9]): 6.28 ± 0.073%
- percentage of EdU-negative (MCF7; protein concentration 0.009 µM): 24.2 ± 0.48%
- percentage of EdU-negative (MCF7; [8]): 24.2 ± 0.77%
- percentage of EdU-negative (MCF7; protein concentration 0.09 µM): 26.5 ± 0.49%
- percentage of EdU-negative (MCF7; [9]): 29.2 ± 1.1%
